Tests used:
[1] = molecular target: UbcH7˜125I-ubiquitin thioester (UniProt P68036)
[2] = molecular target: HPV16 E6 protein (recombinant, full-length) (UniProt P03126)
Chain of HPV16 E6 protein (recombinant, full-length) (P03126 whole entry): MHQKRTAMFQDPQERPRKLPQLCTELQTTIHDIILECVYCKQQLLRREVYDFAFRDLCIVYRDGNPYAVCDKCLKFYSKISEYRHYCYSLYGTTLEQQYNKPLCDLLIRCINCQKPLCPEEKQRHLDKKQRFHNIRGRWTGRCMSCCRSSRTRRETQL

Chain of UbcH7˜125I-ubiquitin thioester (P68036 whole entry, looked up): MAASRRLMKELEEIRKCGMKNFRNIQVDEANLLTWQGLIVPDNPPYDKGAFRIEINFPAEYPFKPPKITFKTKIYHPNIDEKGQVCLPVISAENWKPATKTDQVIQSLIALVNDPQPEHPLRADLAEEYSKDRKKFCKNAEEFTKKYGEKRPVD

Substance | Km- [1] | kcat of 125I-polyubiquitin chain formation in the presence of E6 [2]
GST-E6AP ligase (wild-type, bacterially expressed fusion protein) | 0.058 µM | 
His6-E6AP ligase (full-length, baculovirus-expressed) | 0.046 µM | 0.81±0.045 s^-1 in its presence

From patent US20150210998
